Experimental data as given in the DeepSol protein solubility set.

Test: soluble on expression in E. coli; label from the status in PepcDB or PDB records

Sequence | soluble on expression in E. coli
MTDVYIAAGLRTPIGLVGKQFAKEQPEILGAKLINALQNKYPVPIDQVICGNTVGTGGNIGRLMTLYSHLGESVSALTVDMQCASAGAALSVGYAKIKAGMASNLLVGGIESSSLQPESVYASADWRQGAYKVAQFSPDSISPFAMIEGAERVAREHGFTKEYLNHWTLRSHQKASYCQEQALLADLILDLSGASDQGIRPRLSSKVLSKVPPILGEGHVISAANACLTHDAAAFLQLSSQPSAFKLIDVVEVAGDPQRSPLMVIKASQVLLEKHGLGMADMTAIEWNEAFAVIDGLFETHYPDLLDRYNIFGGALAYGHPYGASAAIIILHLMRALEIKNGRYGIAAIAAAGGQGFAVLLKYHKEFSHADKARILGKAMPK | not soluble
MGSDKIHHHHHHTQRWLSGNISNFQYLMHLNTLAGRCYNDLSQYPIFPWVLADYTSSQLDFNNISTFRDFSKPMGAQSPDRLEQFLKRFREWDDPSGETPPYMYGTHYSSAMIVVSYLVRLEPFTQQFLSLQGGHFDLADRMFHSVGDAWTSASRNNMADVKELIPEFFTLPEMFTNTNHFDLGVKQNGIHVNDVLLPAWCHGDPREFIRLHRQALESDYVSSHLHEWIDLIFGYKQNGEEAVKNSNLFHHLFYEGSVDFERIDDPLTRNATIGFVNNFGQIPTQLFKKPHPQK | not soluble
MSNGAWTDQENDLIVADYFAMLADDVSGRPYNKAEHRRGLLPLLNDRSEGSVEFKHQNISAVLKGLGEDWIPGYKPAFNFQMTLVDAVARWLALNPAWLGRHSGTRAPTGLAEVRPIWIGPPPTLSNQPPPQELEQMLHIARKFDVAARDERNRALGRAGEERVLAHERATLKSAGRDDLARNVRWVSEEDGDGAGYDIASFALDGSPRLIEVKTTNGWERTPFHISRNELAVAEARRSEWSLFRLWNFAREPKAFELHPPLGAHVSLTATTFQASLHLEHHHHHH | not soluble
MAHHHHHHMSDVSIYALRGTSALYEVLGVSRNATQREIRQGYYRLAVLYHPDKNPEGSDIFKEVCFAHGILSDPEQRALYDSGTLRAELESRARACDPSMDPGVELSPEDLRVFVDRVRQTQEANRQVQSTFELRREEEMKRRAEFDAKNPSFKAEYEQARHLRQHGCRGSTSAAHARASATADLSKTVPPKVRTSAEVLAELQREEEERLYGNPGIGSVDSSSSKRAESDGLSTKHHMMSHYRATHREASGAESLSNSYSGGSTAATVRRRQLETTRLPFVRAHCETPQYSETISATVQAYANYDYLTFVEGGSMDHGELEGAIMADALGNYDRHH | not soluble
MGSDKIHHHHHHMFDPESLKKLAIEIVKKSIEAVFPDRAVKETLPKLNLDRVILVAVGKAAWRMAKAAYEVLGKKIRKGVVVTKYGHSEGPIDDFEIYEAGHPVPDENTIKTTRRVLELVDQLNENDTVLFLLSGGGSSLFELPLEGVSLEEIQKLTSALLKSGASIEEINTVRKHLSQVKGGRFAERVFPAKVVALVLSDVLGDRLDVIASGPAWPDSSTSEDALKVLEKYGIETSESVKRAILQETPKHLSNVEIHLIGNVQKVCDEAKSLAKEKGFNAEIITTSLDCEAREAGRFIASIMKEVKFKDRPLKKPAALIFGGETVVHVKGNGIGGRNQELALSAAIALEGIEGVILCSAGTDGTDGPTDAAGGIVDGSTAKTLKAMGEDPYQYLKNNDSYNALKKSGALLITGPTGTNVNDLIIGLIV | soluble
MKDAKGIDKQWVILNELASKISKVRPLPEDVYSKLRIANNIITYYLLDEHADFEVLRDAEKEISKIQVILFGLADQDVSKEYLIKMGQALRNEIDLEFPLKQTAFNTEVKRKKGSETIRIKMPVEVQIEVLGELSEHNGVIFELSQDDEQKILVEGVKERITSALKDFSVIWKFQDNLEHHHHHH | not soluble
ATPSRKQRVSTLWISDVHLGTRDCQAEHLSAFLKRYQADKVYLVGDIIDGWKLRGGMYWPQAHTNVIRRLLTMSKRGTEVIYVTGNHDEFLRRYSKLVLGNIQLVDEAEHVTAEGRRLLVIHGDQFDVITRYHRWLAFLGDSAYEFTLTLNRWLNHWRAKYGYGYWSLSAYLKHKVKSAVNFISDFEEAIAHECVKRGLDGVVCGHIHHAEIRQVGGVEYLNCGDWVESCTALIEHLDGTIELFRLADAHLKASQPV | not soluble
MGSDKIHHHHHHMELLECVEHVIKTRRSHRLYLDKPVEREKLEKMIELAMWAPSAMNRQQWFFVVVAGKRLKEMIGIVEKGYEHILPRLQRFFAETPKVIEQTRRFFKSLGNAPAAVFAYYTPTGDDYSDVQSVSAAIQNMLLAAHAMGLGTCWMTGPVHVEEEINKALGVEGKKLVAVITVGYPAKQPPVPPRRDSEKKVVWMLD | not soluble
MPAPLKQLSWSVGCREIGRNCAISFIDALVNSLLAFRIAKRHTKLASECTWSQGRIDFMSENLNHTERQDRAITAPEFDALGRAPFISSLVKTLVHTDYDTSTGEVRSRRATGFVVGLTGEWGLGKSSVLNLLEHDLKQMEHVAVATLNPWLFKGRDEVVEAYFNALREALGFSSSEKARKLLVHLARYKASIEFVGATTAVVIDFVVGTGSATAIWKKWVLKVVRFLSKSRGLSANEERKNLEAKLAEAKIAIVMLIDELDRVEDEEVRVVAQLVKAVGDIKGISYLVAYDPSRVAQALGKGSTPEEKQKAGESYLEKIIQFPIPLRPLFMDEARDLLLQAMRNNDVTMPAESQSYQTEILNQLLRVIRTPREIKRLIGAFAVLEEIVRGEICPFDVLAYSWLVTKAPSLRERIADNIGQLVDDPSGEEMLARQRQRALATDKERTLTDILGSSAVSHLDILQLLFTRFNARREGSAEFFNGYRLALRRNLIRLLYLGNPPGDFSRRDIEVLWSLTNVDELEAELRRVKETDRLGPLLDRVGDFSASFPEAGDGIFWLALGRALVRENDWIRREEVERSLVDDACATLWRIARDGSEGSRRLRHIVHVLIEGGDLLIVPWLLRKHLFAHGLTNHGDRGRGDCIFEKDETIALRDKELPRYHDAVADGTALKKLPDTELIFCVLNSNYWDSKLKEDFTLQLDSIEAIVSFAALIMPPGIICDKSTLDLMLETDTVLKKANALLRQSGMPESDWLASAVRRLRTVLAGRDIHSADTLRDDFDQEELEHHHHHH | not soluble
MGSDKIHHHHHHMNIIIIGAQASGKMTIGQEIAKQTGMTLFHNHDSIDFVLRFMPWSPDSIALTESIRFKFFETFAKTGQEMIFTIVIDFNDSRDVVFLEKIQIVFQSHNQEVLFVELETELSERLKRNRTENRLKHKPSKRDIKWSESDICSTMDYAIFNPEVAPEALTYYHKINNTCLTATETAYLIIQKINQIKEKN | not soluble
MNTVRWNIAVSPDVDQSVRMFIAAQGGGRKGDLSRFIEDAVRAYLFERAVE | soluble
MGSDKIHHHHHHMKQPLYQQIIDYLQNEIDSGRLPVGAQVPTEKELSAQFNVSRITSKRALTELETQGVIQRHQGKGSFVQAPKHPLHTSLNKVLFLLPFADDLSVGNFYSGLAPTIQAAGLEVFMTSPNFLREKNAADIVNEFAGLVYYAATSNDYLDLLFELALMNFPVVVLDKKIHDLPFATIQSDNFAGGKTATERLIGLGHTKIGYILSGSPALQSVRQRYLGYLQALKEANLAFHTAITETNLLDEHNFKQYFEAHQLTAVVCDNDFSALHCLRNCKNLGIHVPEELSIIGFDDIQAAAFVEPPLTTMAQDFKEMGKLAGEVLLQTMQQDLQIIEDIQVPVTLIERETISTVSK | not soluble
MFQKVDAYAGDPILTLMERFKEDPRSDKVNLSIGLYYNEDGIIPQLQAVAEAEARLNAQPHGASLYLPMEGLNCYRHAIAPLLFGADHPVLKQQRVATIQTLGGSGALKVGADFLKRYFPESGVWVSDPTWENHVAIFAGAGFEVSTYPWYDEATNGVRFNDLLATLKTLQAGSIVLLHPCCHNPTGADLTNDQWDAVIEILKARELIPFLDIAYQGFGAGMEEDAYAIRAIASAGLPALVSNSFSKIFSLYGERVGGLSVMCEDAEAAGRVLGQLKATVRRNYSSPPNFGAQVVAAVLNDEALKASWLKEVEEMRTRILAMRQELVKVLSTEMPERNFDYLLNQRGMFSYTGLSAAQVDRLREEFGVYLIASGRMCVAGLNTANVQRVAKAFAAVM | soluble
MAHHHHHHMDVKEYTHNIIDIDISNHIKIRSSNNYNNKKLKETIRQNAKKIRDITFKYWIKEKQLQSGNFVINDENINDKMIIENKKDIINNINNDKKISYSYVDSFQTCVTNSKDEEGVLYIDDLYTYLIRQLYILFCSLEVRKKKNNVQFDFTRIYKYTYNYKKLESHISYEYLKKYDINDDIIKNDIENFHFYAYDHNIEDPKKYCDMEENYNNANYNICIYLPTKKEIDILFIIDQLYDYFYFVLYVPITTKEKDLIFFPFNIKNNLLVQYHFNIFIPYDYIYYTTYKKMNNFILNYSKIVKNYELSNSLYKHNDTIILIPLIAYNKLGYRIGSGKGYYDKTLTKTRKKNDIIKQIKNIQMNDNIITNNKDHDIQKENHLYLGTKNDTNNIICSNVKNIKHKTFNNEIEIYTQNKQKIYFNEIKIGVSFEMFLYDIDFSETTDLILDYMINENNIYHFIL | not soluble
MGSDKIHHHHHHMMAKGTLCVLDPASILVVAPHFKRRLSGVTSTVVQLIPQQRRRGLAIATLGPGLPETMPALTFAQMPALWKKPRGASHRVWHARRNLEMLVGVVLRDVLRMPLKLLFTSAAQRHHSRYTRWLISKMDAVVATSARSGSFLHVPHSVIRHGIDTELFHPPQGAEDRIAATNLPGDYLIGCFGRVRHQKGTDLFVKAMIELLPRYPGWTAVVSGRVTPEHKGFAEGLKAQIAAASLTERIVFLGEVEDIKPWYRRLTLYVAPSRNEGFGLTPLEAMASETVVVASDAGAYAELIAEGATGAVVAADAYAPLRDAIEPYLADPGRACLHGKAAVAHVRENFALAREAAGLEAVYSRLLGRPVIAPPAPQP | not soluble
MSLKLHKGIKEYECKECHRRFAQKVNMLKHCKRHTGIKDFMCELCGKTFSERNTMETHKLIHTVGKQWTCSVCDKKYVTEYMLQKHVQLTHDKVEAQSCQLCGTKVSTRASMSRHMRRKHPEVLAVRIDDLDHLPETTTIDASSIGIVQPELTLEQEDLAEGKHGKAAKRSHKRKQKPEEEAGAPVPEDATFSEYSEKETEFTGSVGDETNSAVQSIQQVVVTLGDPNVTTPSSSVGLTNITVTPITTAAATQFTNLQPVAVGHLTTPERQLQLDNSILTVTFDTVSGSAMLHNRQNDVQIHPQPEASNPQSVAHFINLTTLVNSITPLGSQLSDQHPLTWRAVPQTDVLPPSQPQAPPQQAAQPQVQAEQQQQQMYSYEGHHHHHH | not soluble
MGSDKIHHHHHHMISTANLTIQFGPKPLFENVSVKFGEGNRYGLIGANGSGKSTFMKIIGGDLEPSAGNVSLEPGVRLGKLRQDQFAFEEVRVLDVVMMGHTEMWAAMSERDAIYANPEATEDDYMRAADLEAKFAEYDGYTAEARAGELLLGLEIAVDQHNLLMREIAPGWKLRVLLAQALFSNPDVLLLDEPTNNLDINTIRWLENVLNGYQSTMIIISHDRHFLNQVCTHMADVDYGEIRVYPGNYDDYMLASTQARERLTANNAKAKERIVELQDFVRRFAANKSKSRQATSRLKQIDRIKADQVEVKPSSRQNPYIRFEQNKVMHRLAVTIEKLSKSYDQPVIRDFSAMVDAGEKVAIIGANGVGKTTLLRMLATDLAPDSGTVKWSENADIGYMAQDVSDQFQQGDINLFDWMAEHRQPGDDDQSIRSALGRLLFSGDDLPKAPKVLSGGEKNRMTFGRLMLGRHNVMLLDEPTNHLDMESIESLQFALEKYEGALIFVSHDREFVSGLATRIIEILPDGELVDYRGGYEDYLASRGIEA | not soluble
